We go through 31 substances from paper PMC9456320.

In test [1] the target is C-terminally mKGC-tagged ORF30 (ORF30-mKGC) (Kaposi's sarcoma-associated herpesvirus (KSHV; BAC16, strain JSC-1)). Kind of test: split reporter (BiFC, NanoBiT); split mKusabira-Green (mKGN/mKGC) BiFC in 293T cells, co-transfected by the calcium phosphate method, all combinations of tag type and location; cells fixed two days after transfection, gated by FSC/SSC, ratio of mKG-positive cells by flow cytometry.

In test [2] the target is C-terminally mKGC-tagged ORF30 (ORF30-mKGC). In words: BiFC assay, flow cytometry. The settings on record: 293T cells, co-transfected with mCherry transfection control, three independent samples.
A further test deals with p50-mKGC (pCONT-2) (UniProt P19838). Kind of test: split reporter (BiFC, NanoBiT); split mKusabira-Green BiFC in 293T cells, lipofection of mKGN-ORF18 alanine-scanning mutants with ORF30-mKGC and mCherry as transfection control; mCherry-positive cells gated, % mKG-positive cells by flow cytometry; block mutants under 20% and single mutants under 60% counted as binding-negative. Background: A flow cytometer gives signals particle by particle.

Some results are limits rather than exact numbers.

Chain of UniProt P19838 (P19838 1-433): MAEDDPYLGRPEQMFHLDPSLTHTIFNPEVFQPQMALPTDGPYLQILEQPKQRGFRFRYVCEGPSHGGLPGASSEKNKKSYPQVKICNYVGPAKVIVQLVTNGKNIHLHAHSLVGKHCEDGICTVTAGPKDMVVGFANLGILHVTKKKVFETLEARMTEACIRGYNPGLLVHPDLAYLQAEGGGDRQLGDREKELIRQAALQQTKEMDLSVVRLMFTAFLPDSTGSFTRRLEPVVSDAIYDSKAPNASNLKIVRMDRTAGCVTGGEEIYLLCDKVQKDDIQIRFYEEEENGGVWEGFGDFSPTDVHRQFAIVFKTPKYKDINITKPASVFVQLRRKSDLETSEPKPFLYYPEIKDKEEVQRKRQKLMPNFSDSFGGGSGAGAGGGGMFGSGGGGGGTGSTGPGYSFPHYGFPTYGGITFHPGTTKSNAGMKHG

Take “N-terminally mKGN-tagged ORF18 (mKGN-ORF18) WT (natural protein)”: the mKG-positive cells (%) in test [1] was determined as 70%. For “N-terminally mKGN-tagged ORF18 (mKGN-ORF18) WT C166A”, the response in test [2] (parent: 99.9) is 99.6%. On to “N-terminally mKGN-tagged ORF18 (mKGN-ORF18) WT C166A; L167A; W170A; G171A”, for which the response in test [2] (parent: 99.8) was 14.2%. In the case of “N-terminally mKGN-tagged ORF18 (mKGN-ORF18) WT E36A”, the response in test [2] (parent: 99.9) came to 55.9%. For the substance “N-terminally mKGN-tagged ORF18 (mKGN-ORF18) WT E36A; L37A; R38A”, the response in test [2] (parent: 99.8) stood at 9.76%.

As for “N-terminally mKGN-tagged ORF18 (mKGN-ORF18) WT E176A; V179A; R180A”, in test [2] (parent: 99.8), the response worked out at 75.3%. Same read-out and setting: as for “N-terminally mKGN-tagged ORF18 (mKGN-ORF18) WT F187A; L191A”, the figure is 32.7%; as for “N-terminally mKGN-tagged ORF18 (mKGN-ORF18) WT G3A”, 99.8%. With “N-terminally mKGN-tagged ORF18 (mKGN-ORF18) WT G15A”, the response in test [2] (parent: 99.9) amounted to 99.6%. On the same count and under the same terms, the same measure for “N-terminally mKGN-tagged ORF18 (mKGN-ORF18) WT G171A”: 98.6%. Consider “N-terminally mKGN-tagged ORF18 (mKGN-ORF18) WT G195A; L197A”, for which the response in test [2] (parent: 99.8) was 87.5%. For the substance “N-terminally mKGN-tagged ORF18 (mKGN-ORF18) WT H41A”, the response in test [2] (parent: 99.9) was found to be 47.4%. Take “N-terminally mKGN-tagged ORF18 (mKGN-ORF18) WT H41A; L44A”: the response in test [2] (parent: 99.8) was 16.2%.

As to “N-terminally mKGN-tagged ORF18 (mKGN-ORF18) WT L19A”, the response in test [2] (parent: 99.9) is 99.1%. Consider “N-terminally mKGN-tagged ORF18 (mKGN-ORF18) WT L24A”, for which the response in test [2] (parent: 99.9) came out at 93.4%.

Take “N-terminally mKGN-tagged ORF18 (mKGN-ORF18) WT L24A; L29A”: the response in test [2] (parent: 99.8) was found to be 16.7%. “N-terminally mKGN-tagged ORF18 (mKGN-ORF18) WT L29A”: the response in test [2] (parent: 99.9) came to 58.8%. Same read-out and setting: as for “N-terminally mKGN-tagged ORF18 (mKGN-ORF18) WT L37A”, the figure is 98.7%; as for “N-terminally mKGN-tagged ORF18 (mKGN-ORF18) WT L44A”, 94.7%. Take “N-terminally mKGN-tagged ORF18 (mKGN-ORF18) WT L142A; D144A; G145A; N146A”: in test [2] (parent: 99.8), the response worked out at 81.3%. On the same count and under the same terms, the same measure for “N-terminally mKGN-tagged ORF18 (mKGN-ORF18) WT L151A; G152A; S153A”: 72.6%. In the case of “N-terminally mKGN-tagged ORF18 (mKGN-ORF18) WT L159A”, in test [2] (parent: 99.9), the response was determined as 99.9%. With “N-terminally mKGN-tagged ORF18 (mKGN-ORF18) WT L167A”, the response in test [2] (parent: 99.9) is 96.6%.

On to “N-terminally mKGN-tagged ORF18 (mKGN-ORF18) WT N53A; Y55A; L56A”, for which, in test [2] (parent: 99.8), the response was found to be 39.9%. Consider “N-terminally mKGN-tagged ORF18 (mKGN-ORF18) WT P14A”, for which the response in test [2] (parent: 99.9) amounted to 99.9%. For “N-terminally mKGN-tagged ORF18 (mKGN-ORF18) WT P14A; G15A; L19A”, the response in test [2] (parent: 99.8) turned out to be 14.1%.

On to “N-terminally mKGN-tagged ORF18 (mKGN-ORF18) WT P156A”, for which, in test [2] (parent: 99.9), the response came to 99.8%. “N-terminally mKGN-tagged ORF18 (mKGN-ORF18) WT P156A; R158A; L159A”: the response in test [2] (ASC10mut protein expression was not confirmed by Western blotting, parent: 99.8) was found to be 14.4%. Take “N-terminally mKGN-tagged ORF18 (mKGN-ORF18) WT R158A”: the response in test [2] (parent: 99.9) came out at 87.3%. On the same count and under the same terms, as for “N-terminally mKGN-tagged ORF18 (mKGN-ORF18) WT W170A”, the figure is 25.6%. Turning to “p65-mKGN (pCONT-1) (from UniProt Q04206 1-551) (natural protein)”, in the test with p50-mKGC (pCONT-2), the mKG-positive cells (%) is above 90%.
